Our source for the Kd values is PMC4045321 (2014).

Where only a bound is given, the exact number is not on record here.

This data set concerns the molecule itself. Nature of the data set: size exclusion chromatography.

B1: eIF2Bα (protein)
chain: MDDKELIEYFKSQMKEDPDMASAVAAIRTLLEFLKRDKGETIQGLRANLTSAIETLCGVDSSVAVSSGGELFLRFISLASLEYSDYSKCKKIMIERGELFLRRISLSRNKIADLCHTFIKDGATILTHAYSRVVLRVLEAAVAAKKRFSVYVTESQPDLSGKKMAKALCHLNVPVTVVLDAAVGYIMEKADLVIVGAEGVVENGGIINKIGTNQMAVCAKAQNKPFYVVAESFKFVRLFPLNQQDVPDKFKYKADTLKVAQTGQDLKEEHPWVDYTAPSLITLLFTDLGVLTPSAVSDELIKLYL
B1 registered a Kd of under 1 nM.

A word on the Kd: it is the equilibrium constant for the complex coming apart. Read a low Kd as a tighter complex.
